According to US20200377590A1 (Hoffmann-La Roche, published 2020):

Target: T1, CD81 (UniProt P60033 1-236, limits assumed)
T1 construct: whole, on cells; also called CD81 receptor
T1 sequence (looked up): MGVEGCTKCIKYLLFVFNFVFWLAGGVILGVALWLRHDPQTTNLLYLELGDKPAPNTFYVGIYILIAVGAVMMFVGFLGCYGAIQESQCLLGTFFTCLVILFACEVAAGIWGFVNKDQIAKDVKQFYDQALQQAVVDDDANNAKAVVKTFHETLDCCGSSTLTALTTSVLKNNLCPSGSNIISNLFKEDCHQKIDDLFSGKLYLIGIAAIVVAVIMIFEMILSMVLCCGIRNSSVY
Assay: cell ELISA;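 note: antibody binding to HuH7 cells expressing CD81 versus a CD81-negative HuH7 control line, bound antibody detected by secondary reagent, absorbance at 450 nm with 620 nm reference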

Binder | ELISA data
CD81K04 HC GG-05-hVH_1_18 / LC JA_GG-09-hVK_4_1 (antibody, V domains shown, human constant region) VH: QVQLVQSGAEVKKPGASVKVSCKASGYTFSSSWMNWVRQAPGQGLEWMGRIYSGDGDAIYAQKLQGRVTMTTDTSTSTAYMELRSLRSDDTAVYYCAREGKTGDLLLRSWGQGTLVTVSS VL: DIVMTQSPDSLAVSLGERATINCKSSKSVSTSIYSYMHWYQQKPGQPPKLLIKYASTRESGVPDRFSGSGSGTDFTLTISSLQAEDVAVYYCEHSREFPFTFGQGTKLEIK | 0.889
CD81K04 HC JA_GG-13-hVH_1_69 / LC GG-02-hVK_4_1 (antibody, V domains shown, human constant region) VH: QVQLVQSGAEVKKPGSSVKVSCKASGGTFSSSWMNWVRQAPGQGLEWMGRIYSGDGDAIYAQKFQGRVTITADESTSTAYMELSSLRSEDTAVYYCAREGKTGDLLLRSWGQGTLVTVSS VL: DIVMTQSPDSLAVSLGERATINCKSSKSVSTSIYSYMHWYQQKPGQPPKLLIYYASYRESGVPDRFSGSGSGTDFTLTISSLQAEDVAVYYCQHSREFPFTFGQGTKLEIK | 0.172
CD81K04 HC JA_GG-13-hVH_1_69 / LC GG-03-hVK_4_1 (antibody, V domains shown, human constant region) VH: QVQLVQSGAEVKKPGSSVKVSCKASGGTFSSSWMNWVRQAPGQGLEWMGRIYSGDGDAIYAQKFQGRVTITADESTSTAYMELSSLRSEDTAVYYCAREGKTGDLLLRSWGQGTLVTVSS VL: DIVMTQSPDSLAVSLGERATINCKSSKSVSTSIYSYLAWYQQKPGQPPKLLIYYASYRESGVPDRFSGSGSGTDFTLTISSLQAEDVAVYYCQHSREFPFTFGQGTKLEIK | 0.115
CD81K04 HC JA_GG-13-hVH_1_69 / LC GG-04-hVK_4_1 (antibody, V domains shown, human constant region) VH: QVQLVQSGAEVKKPGSSVKVSCKASGGTFSSSWMNWVRQAPGQGLEWMGRIYSGDGDAIYAQKFQGRVTITADESTSTAYMELSSLRSEDTAVYYCAREGKTGDLLLRSWGQGTLVTVSS VL: DIVMTQSPDSLAVSLGERATINCKSSKSVSTSIYSYLAWYQQKPGQPPKLLIYYASTRESGVPDRFSGSGSGTDFTLTISSLQAEDVAVYYCQHSREFPYTFGQGTKLEIK | 0.073
CD81K04 HC JA_GG-13-hVH_1_69 / LC JA_GG-08-hVK_4_1 (antibody, V domains shown, human constant region) VH: QVQLVQSGAEVKKPGSSVKVSCKASGGTFSSSWMNWVRQAPGQGLEWMGRIYSGDGDAIYAQKFQGRVTITADESTSTAYMELSSLRSEDTAVYYCAREGKTGDLLLRSWGQGTLVTVSS VL: DIVMTQSPDSLAVSLGERATINCKSSKSVSTSIYSYMHWYQQKPGQPPKLLIKYASYLESGVPDRFSGSGSGTDFTLTISSLQAEDVAVYYCEHSREFPFTFGQGTKLEIK | 0.743
CD81K04 HC JA_GG-13-hVH_1_69 / LC JA_GG-09-hVK_4_1 (antibody, V domains shown, human constant region) VH: QVQLVQSGAEVKKPGSSVKVSCKASGGTFSSSWMNWVRQAPGQGLEWMGRIYSGDGDAIYAQKFQGRVTITADESTSTAYMELSSLRSEDTAVYYCAREGKTGDLLLRSWGQGTLVTVSS VL: DIVMTQSPDSLAVSLGERATINCKSSKSVSTSIYSYMHWYQQKPGQPPKLLIKYASTRESGVPDRFSGSGSGTDFTLTISSLQAEDVAVYYCEHSREFPFTFGQGTKLEIK | 0.776
CD81K04 HC JA_GG-13-hVH_1_69 / LC JA_GG-10-hVK_4_1 (antibody, V domains shown, human constant region) VH: QVQLVQSGAEVKKPGSSVKVSCKASGGTFSSSWMNWVRQAPGQGLEWMGRIYSGDGDAIYAQKFQGRVTITADESTSTAYMELSSLRSEDTAVYYCAREGKTGDLLLRSWGQGTLVTVSS VL: DIVMTQSPDSLAVSLGERATINCRASKSVSTSIYSYMHWYQQKPGQPPKLLIKYASYLESGVPDRFSGSGSGTDFTLTISSLQAEDVAVYYCEHSREFPFTFGQGTKLEIK | 0.613
CD81K04 HC JA_GG-14-hVH_1_3 / LC GG-02-hVK_4_1 (antibody, V domains shown, human constant region) VH: QVQLVQSGAEVKKPGASVKVSCKASGYTFSSSWMNWVRQAPGQGLEWMGRIYSGDGDAIYNGKFKGRATITADTSASTAYMELSSLRSEDTAVYYCAREGKTGDLLLRSWGQGTLVTVSS VL: DIVMTQSPDSLAVSLGERATINCKSSKSVSTSIYSYMHWYQQKPGQPPKLLIYYASYRESGVPDRFSGSGSGTDFTLTISSLQAEDVAVYYCQHSREFPFTFGQGTKLEIK | 0.575
CD81K04 HC JA_GG-14-hVH_1_3 / LC GG-03-hVK_4_1 (antibody, V domains shown, human constant region) VH: QVQLVQSGAEVKKPGASVKVSCKASGYTFSSSWMNWVRQAPGQGLEWMGRIYSGDGDAIYNGKFKGRATITADTSASTAYMELSSLRSEDTAVYYCAREGKTGDLLLRSWGQGTLVTVSS VL: DIVMTQSPDSLAVSLGERATINCKSSKSVSTSIYSYLAWYQQKPGQPPKLLIYYASYRESGVPDRFSGSGSGTDFTLTISSLQAEDVAVYYCQHSREFPFTFGQGTKLEIK | 0.518
CD81K04 HC JA_GG-14-hVH_1_3 / LC GG-04-hVK_4_1 (antibody, V domains shown, human constant region) VH: QVQLVQSGAEVKKPGASVKVSCKASGYTFSSSWMNWVRQAPGQGLEWMGRIYSGDGDAIYNGKFKGRATITADTSASTAYMELSSLRSEDTAVYYCAREGKTGDLLLRSWGQGTLVTVSS VL: DIVMTQSPDSLAVSLGERATINCKSSKSVSTSIYSYLAWYQQKPGQPPKLLIYYASTRESGVPDRFSGSGSGTDFTLTISSLQAEDVAVYYCQHSREFPYTFGQGTKLEIK | 0.177
CD81K04 HC JA_GG-14-hVH_1_3 / LC JA_GG-08-hVK_4_1 (antibody, V domains shown, human constant region) VH: QVQLVQSGAEVKKPGASVKVSCKASGYTFSSSWMNWVRQAPGQGLEWMGRIYSGDGDAIYNGKFKGRATITADTSASTAYMELSSLRSEDTAVYYCAREGKTGDLLLRSWGQGTLVTVSS VL: DIVMTQSPDSLAVSLGERATINCKSSKSVSTSIYSYMHWYQQKPGQPPKLLIKYASYLESGVPDRFSGSGSGTDFTLTISSLQAEDVAVYYCEHSREFPFTFGQGTKLEIK | 0.953
CD81K04 HC JA_GG-14-hVH_1_3 / LC JA_GG-09-hVK_4_1 (antibody, V domains shown, human constant region) VH: QVQLVQSGAEVKKPGASVKVSCKASGYTFSSSWMNWVRQAPGQGLEWMGRIYSGDGDAIYNGKFKGRATITADTSASTAYMELSSLRSEDTAVYYCAREGKTGDLLLRSWGQGTLVTVSS VL: DIVMTQSPDSLAVSLGERATINCKSSKSVSTSIYSYMHWYQQKPGQPPKLLIKYASTRESGVPDRFSGSGSGTDFTLTISSLQAEDVAVYYCEHSREFPFTFGQGTKLEIK | 0.975
CD81K04 HC JA_GG-14-hVH_1_3 / LC JA_GG-10-hVK_4_1 (antibody, V domains shown, human constant region) VH: QVQLVQSGAEVKKPGASVKVSCKASGYTFSSSWMNWVRQAPGQGLEWMGRIYSGDGDAIYNGKFKGRATITADTSASTAYMELSSLRSEDTAVYYCAREGKTGDLLLRSWGQGTLVTVSS VL: DIVMTQSPDSLAVSLGERATINCRASKSVSTSIYSYMHWYQQKPGQPPKLLIKYASYLESGVPDRFSGSGSGTDFTLTISSLQAEDVAVYYCEHSREFPFTFGQGTKLEIK | 0.882
CD81K04 HC JA_GG-14-hVH_1_69 / LC GG-02-hVK_4_1 (antibody, V domains shown, human constant region) VH: QVQLVQSGAEVKKPGSSVKVSCKASGYTFSSSWMNWVRQAPGQGLEWMGRIYSGDGDAIYNGKFKGKATITADESTSTAYMELSSLRSEDTAVYYCAREGKTGDLLLRSWGQGTLVTVSS VL: DIVMTQSPDSLAVSLGERATINCKSSKSVSTSIYSYMHWYQQKPGQPPKLLIYYASYRESGVPDRFSGSGSGTDFTLTISSLQAEDVAVYYCQHSREFPFTFGQGTKLEIK | 0.235
CD81K04 HC JA_GG-14-hVH_1_69 / LC GG-03-hVK_4_1 (antibody, V domains shown, human constant region) VH: QVQLVQSGAEVKKPGSSVKVSCKASGYTFSSSWMNWVRQAPGQGLEWMGRIYSGDGDAIYNGKFKGKATITADESTSTAYMELSSLRSEDTAVYYCAREGKTGDLLLRSWGQGTLVTVSS VL: DIVMTQSPDSLAVSLGERATINCKSSKSVSTSIYSYLAWYQQKPGQPPKLLIYYASYRESGVPDRFSGSGSGTDFTLTISSLQAEDVAVYYCQHSREFPFTFGQGTKLEIK | 0.26
CD81K04 HC JA_GG-14-hVH_1_69 / LC JA_GG-08-hVK_4_1 (antibody, V domains shown, human constant region) VH: QVQLVQSGAEVKKPGSSVKVSCKASGYTFSSSWMNWVRQAPGQGLEWMGRIYSGDGDAIYNGKFKGKATITADESTSTAYMELSSLRSEDTAVYYCAREGKTGDLLLRSWGQGTLVTVSS VL: DIVMTQSPDSLAVSLGERATINCKSSKSVSTSIYSYMHWYQQKPGQPPKLLIKYASYLESGVPDRFSGSGSGTDFTLTISSLQAEDVAVYYCEHSREFPFTFGQGTKLEIK | 0.835
CD81K04 HC JA_GG-14-hVH_1_69 / LC JA_GG-09-hVK_4_1 (antibody, V domains shown, human constant region) VH: QVQLVQSGAEVKKPGSSVKVSCKASGYTFSSSWMNWVRQAPGQGLEWMGRIYSGDGDAIYNGKFKGKATITADESTSTAYMELSSLRSEDTAVYYCAREGKTGDLLLRSWGQGTLVTVSS VL: DIVMTQSPDSLAVSLGERATINCKSSKSVSTSIYSYMHWYQQKPGQPPKLLIKYASTRESGVPDRFSGSGSGTDFTLTISSLQAEDVAVYYCEHSREFPFTFGQGTKLEIK | 0.913
CD81K04 HC JA_GG-14-hVH_1_69 / LC JA_GG-10-hVK_4_1 (antibody, V domains shown, human constant region) VH: QVQLVQSGAEVKKPGSSVKVSCKASGYTFSSSWMNWVRQAPGQGLEWMGRIYSGDGDAIYNGKFKGKATITADESTSTAYMELSSLRSEDTAVYYCAREGKTGDLLLRSWGQGTLVTVSS VL: DIVMTQSPDSLAVSLGERATINCRASKSVSTSIYSYMHWYQQKPGQPPKLLIKYASYLESGVPDRFSGSGSGTDFTLTISSLQAEDVAVYYCEHSREFPFTFGQGTKLEIK | 0.77
CD81K04 HC JA_GG-14-hVH_1_69-GA / LC GG-02-hVK_4_1 (antibody, V domains shown, human constant region) VH: QVQLVQSGAEVKKPGSSVKVSCKASGYTFSSSWMNWVRQAPGQGLEWMGRIYSGDGDAIYNGKFKGKATITADESTSTAYMELSSLRSEDTAVYYCAREGKTGDLLLRSWGQGTLVTVSS VL: DIVMTQSPDSLAVSLGERATINCKSSKSVSTSIYSYMHWYQQKPGQPPKLLIYYASYRESGVPDRFSGSGSGTDFTLTISSLQAEDVAVYYCQHSREFPFTFGQGTKLEIK | 0.211
CD81K04 HC JA_GG-14-hVH_1_69-GA / LC GG-03-hVK_4_1 (antibody, V domains shown, human constant region) VH: QVQLVQSGAEVKKPGSSVKVSCKASGYTFSSSWMNWVRQAPGQGLEWMGRIYSGDGDAIYNGKFKGKATITADESTSTAYMELSSLRSEDTAVYYCAREGKTGDLLLRSWGQGTLVTVSS VL: DIVMTQSPDSLAVSLGERATINCKSSKSVSTSIYSYLAWYQQKPGQPPKLLIYYASYRESGVPDRFSGSGSGTDFTLTISSLQAEDVAVYYCQHSREFPFTFGQGTKLEIK | 0.243
CD81K04 HC JA_GG-14-hVH_1_69-GA / LC JA_GG-08-hVK_4_1 (antibody, V domains shown, human constant region) VH: QVQLVQSGAEVKKPGSSVKVSCKASGYTFSSSWMNWVRQAPGQGLEWMGRIYSGDGDAIYNGKFKGKATITADESTSTAYMELSSLRSEDTAVYYCAREGKTGDLLLRSWGQGTLVTVSS VL: DIVMTQSPDSLAVSLGERATINCKSSKSVSTSIYSYMHWYQQKPGQPPKLLIKYASYLESGVPDRFSGSGSGTDFTLTISSLQAEDVAVYYCEHSREFPFTFGQGTKLEIK | 0.836
